This note sets out measurements from US5849558.

The data set has as its system PspGI restriction endonuclease (recombinant, pPspGIR70) (Pyrococcus species G-I-H). Briefly: cleavage_in_vitro. Conditions: approximate titer of crude extract on T7 DNA; NEBuffer III, 65 C 1 h.

On to T7 DNA, for which the activity (units/g cells) was determined as 20000.
